Results taken from the supplement of paper PMC10567573.

B1: PBXIP1 (parent)
chain: EKQKQPRWREGTKDSHDPLPSWAE

Variants of: B1
Assay: protein stability index of a GFP-peptide fusion (GPS, HEK-293T) (PSI 1-6); higher = more stable
Conditions: c terminus: a fixed tail appended
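Further: lentivirally expressed fusions sorted by FACS into six bins by GFP to DsRed ratio, PSI derived from sequencing read proportions per bin multiplied by bin number.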

Protein stability index of substitutions, site by site:
P18: S 1.29, M 1.88, Y 1.95, D 1.75, Q 1.96, N 1.92, H 1.75, T 1.87, V 3.04
R7: F 2.54, K 2.02, H 2.05, W 2.53, P 2.33, A 1.59, N 3.14, M 1.94, C 5.92, I 1.96, Y 1.47, D 2.47, G 2.14, S 1.23, T 1.57, L 1.32
Q5: P 1.68, N 2.1, R 2.57, H 2.11, L 1.82, Y 2.37, K 2.18, G 1.99, M 1.55, F 2.09
L19: D 1.99, C 1.51
S15: W 1.54, L 1.27, C 2.95, G 1.68, Q 1.8, K 2.02, M 3.08, D 1.84, A 2.65, E 1.37, N 1.63, P 1.26, T 1.96
D17: R 2.27, C 3.64, A 1.39, P 1.94, V 3.08, N 1.97, Y 1.5, I 1.48, K 1.24, E 1.39, T 1.43, L 1.58, S 1.86
W8: T 1.58, K 2.46, N 3.03, M 2, F 1.88, R 2.54, V 2.05, G 2.04, A 2.09, E 3.08, Y 1.94, D 3.2, H 2.41, I 2.06, C 2.31
P6: Y 3.67, L 2.79, A 1.3, W 1.98, T 3.31, S 2.4, E 1.89, F 2.43, C 1.48, G 2.11, H 2.53, D 2.48
G11: Y 1.98, S 2.61, L 2.31, I 1.69, R 1.46, H 3.13, F 2.88, Q 1.68, P 1.77, E 1.15, M 2.78, D 2.02
K13: N 2.35, C 1.28, A 2.15, Q 1.29, V 1.52, H 2.96, D 2.18
T12: H 2.89, L 2.31, M 2.69, K 2.38, R 2.71, A 2, I 2.34, Y 1.01, F 1.33, E 1.61
R9: M 2.35, H 1.04, I 1.89, P 1.84, D 1.76, E 3.15, L 2.48, C 1.39, W 1.66, K 2.32, S 1.39, A 1.79, T 2.17, Q 1.34
D14: Y 2.35, C 1.1, Q 1.87, F 1.46, M 1.96, S 3.28, P 1.83, K 2.66, T 1.8
E10: D 3, K 2.34, W 1.53, Q 1.83, C 2.32, F 2.27, I 2.1, L 1.96, T 3.55, G 1.05, A 1.14, S 1.18, R 2.2
H16: C 3.68, K 1.93, N 2.85, W 1.37, S 2.56, I 1.98, P 2.26, E 3.06, V 1.69, M 1.07, Y 1.39, D 2.05
